Results: US20240279350A1 (Sanofi, published 2024)

Legend:
human CD40 on cells [1] = target: T1, human CD40 on cells (human, UniProt P25942 21-277); test: flow cytometry on Raji cells; EC50 relative to mAb1
T1 construct: also called hCD40
Experimental: (§1) Briefly, Raji cells were seeded in 96-well plates at 1.0×10⁵ cells/well and incubated with serially-diluted test antibodies for 60 minutes at 4° C. in 2% FBS/dPBS buffer. The cells were then washed twice with dPBS and further incubated with secondary allophycocyanin (APC)-conjugated AffiniPure F(ab′)₂ fragment donkey anti-human IgG (H+L) antibody (Jackson ImmunoResearch, Ref. 709-136-149) (1:500) for 30 minutes at 4° C. Finally, the cells were washed twice with dPBS and suspended in FACS buffer for flow cytometry analysis. MFI values vs concentrations were analyzed by FlowJo and data were further fitted with four-parameter non-linear regression to get EC₅₀ values by GraphPad Prism software.

[2] = target: T2, cynomolgus CD40 on HEK293 cells (cynomolgus, UniProt G7PG38 21-278); test: flow cytometry on cynomolgus CD40-expressing HEK293 cells, 1 h at 4 °C, AF488-conjugated secondary antibody (MFI)
T2 construct: whole, on cells; also called cyno CD40; cynoCD40-expressing HEK293 cells
Experimental: Cyno CD40-expressing HEK293 cells were plated at a density of 50×10³ cells per well in 96-well plates and incubated with serially diluted concentrations of CD40 agonists, hexameric ligand and anti-CD40 antibodies, for 1 hour at 4° C. Cells were then harvested and incubated with AF488-conjugated secondary antibody before flow cytometry analysis using a Fortessa X20.
Data from the flow cytometer was analyzed using FlowJo (V10.8.1), then the binding curves, the Eₘₐₓ, and EC₅₀ values were plotted using GraphPad Prism (V9.1.2).

[3] = target: rhesus CD40 on HEK293H reporter cells (rhesus, UniProt F6SNI1 21-278); test: cell-based or functional assay
human CD40 on cells [4] = target: T1, human CD40 on cells; test: cell-based or functional assay
human CD40 on cells [5] = target: T1, human CD40 on cells; test: cell-based or functional assay; remark: listed apart in the source
human CD40 on cells [6] = target: T1, human CD40 on cells; test: cell-based or functional assay; remark: listed apart in the source
recombinant human CD40 = target: T3, recombinant human CD40 (human, UniProt P25942 21-193); test: SPR (Biacore 8K+), antibody captured on protein A/G, recombinant hCD40 as analyte, 1:1 model
T3 construct: Soluble analyte in SPR; also called Recombinant hCD40; hCD40
Experimental: Protein A/G was immobilized to the surface of a CM5 series S chip using amine chemistry. Test compounds were then captured to the surface between 120 RU and 170 RU. Recombinant hCD40 was diluted 2-fold from 300 nM to 2.34 nM in HBS-EP+buffer. […] Glycine (10 mM) pH 1.5 was used to regenerate the chip surface. The binding affinity (KD) was determine using a 1:1-binding model by a global fit of all the concentrations.

human CD40 on cells [7] = target: T1, human CD40 on cells; test: flow cytometry on Raji cells; binding to Raji cells, flow cytometry
Experimental: as §1

human CD40 on cells [8] = target: T1, human CD40 on cells; test: flow cytometry on U-2 OS/NFκB cells (further experiment), APC-conjugated anti-human IgG secondary antibody (median fluorescence intensity)
Experimental: as §1, with “cultured U-2 OS/NFκB” for “Raji”

human CD40 on cells [9] = target: T1, human CD40 on cells; test: cell-based or functional assay; remark: listed apart in the source
human CD40 on cells [10] = target: T1, human CD40 on cells; test: flow cytometry on U-2 OS/NFκB cells; EC50 relative to mAb1
Experimental: as §1, with “cultured U-2 OS/NFκB” for “Raji”

human CD40 on cells [11] = target: T1, human CD40 on cells; test: flow cytometry on human primary naive B-cells, 1 h at 4 °C, AF488-conjugated secondary antibody (MFI)
Experimental: Naive B-cell were plated at a density of […] cells per well in 96-well plates and incubated with CD40 agonists, hexameric ligand and anti-CD40 antibodies, for 1 hour at 4° C.

human CD40 on cells [12] = target: T1, human CD40 on cells; test: cell-based or functional assay; remark: listed apart in the source
human CD40 on cells [13] = target: T1, human CD40 on cells; test: flow cytometry on U-2 OS/NFκB cells
Experimental: as §1, with “cultured U-2 OS/NFκB” for “Raji”

T3 sequence (P25942 21-193 limits assumed): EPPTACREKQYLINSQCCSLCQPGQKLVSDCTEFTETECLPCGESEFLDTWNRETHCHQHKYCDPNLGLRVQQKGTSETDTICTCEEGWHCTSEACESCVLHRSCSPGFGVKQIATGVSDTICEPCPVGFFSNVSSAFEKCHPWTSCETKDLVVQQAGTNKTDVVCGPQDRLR
T1 sequence (P25942 21-277 limits assumed): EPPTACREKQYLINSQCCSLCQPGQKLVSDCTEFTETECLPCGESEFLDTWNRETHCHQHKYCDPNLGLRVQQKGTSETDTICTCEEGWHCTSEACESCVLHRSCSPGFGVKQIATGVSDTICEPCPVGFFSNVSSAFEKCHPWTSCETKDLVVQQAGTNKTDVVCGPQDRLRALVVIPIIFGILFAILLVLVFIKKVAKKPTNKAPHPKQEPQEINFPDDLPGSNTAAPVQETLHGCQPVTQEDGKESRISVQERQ

B1: mAb1 (Y32K/S77A) (antibody, human IgG2, kappa)
heavy: QVQLVQSGAEVKKPGASVKVSCKASGYTFTGKYMHWVRQAPGQGLEWMGWINPDSGGTNYAQKFQGRVTMTRDTSIATAYMELNRLRSDDTAVYYCARDQPLGYCTNGVCSYFDYWGQGTLVTVSSASTKGPSVFPLAPCSRSTSESTAALGCLVKDYFPEPVTVSWNSGALTSGVHTFPAVLQSSGLYSLSSVVTVPSSNFGTQTYTCNVDHKPSNTKVDKTVERKCCVECPPCPAPPVAGPSVFLFPPKPKDTLMISRTPEVTCVVVDVSHEDPEVQFNWYVDGVEVHNAKTKPREEQFNSTFRVVSVLTVVHQDWLNGKEYKCKVSNKGLPAPIEKTISKTKGQPREPQVYTLPPSREEMTKNQVSLTCLVKGFYPSDIAVEWESNGQPENNYKTTPPMLDSDGSFFLYSKLTVDKSRWQQGNVFSCSVMHEALHNHYTQKSLSLSPGK
light: DIQMTQSPSSVSASVGDRVTITCRASQGIYSWLAWYQQKPGKAPNLLIYTASTLQSGVPSRFSGSGSGTDFTLTISSLQPEDFATYYCQQANIFPLTFGGGTKVEIKRTVAAPSVFIFPPSDEQLKSGTASVVCLLNNFYPREAKVQWKVDNALQSGNSQESVTEQDSKDSTYSLSSTLTLSKADYEKHKVYACEVTHQGLSSPVTKSFNRGEC
notes: Mutant of AbC1 with the same constant regions (IgG2); also called mAb1 double mutant; mAb1 (without masking moiety)
Human CD40 on cells [1]
  Relative masking efficacy: 1 fold
[2]
  EC50 (read off the curve): ~2 nM
[3]
  EC50, luciferase reporter assay, HEK293H rhesus CD40 reporter cells: 0.49 nM
  Top, luciferase reporter assay, HEK293H rhesus CD40 reporter cells: 3.91 nM
Human CD40 on cells [4]
  EC50, NFkB-luciferase reporter assay, human NFkB-Luc2P/U-2 OS cells: 0.52 nM
  Top, NFkB-luciferase reporter assay, human NFkB-Luc2P/U-2 OS cells: 53.6 nM
Human CD40 on cells [5]
  EC50, CD86 expression, primary human B-cell activation assay: 0.175 nM
  Relative masking efficacy, CD86 expression, primary human B-cell activation assay: 1 fold
Human CD40 on cells [6]
  EC50, CD83 expression, B-cells of hCD40 KI mice: 0.051 nM
  EC50, CD86 expression, B-cells of hCD40 KI mice: 0.031 nM
  Relative masking efficacy, CD83 expression, B-cells of hCD40 KI mice: 1 fold
  Relative masking efficacy, CD86 expression, B-cells of hCD40 KI mice: 1 fold
Recombinant human CD40
  Kd: 65 nM
  koff: 0.0034 s⁻¹
  kon: 52000 M⁻¹ s⁻¹
Human CD40 on cells [7]
  EC50: 1.34 nM
Human CD40 on cells [8]
  EC50 (read off the curve): ~2 nM
Human CD40 on cells [9]
  EC50, CD83 expression, MoDC maturation assay: 0.49 nM
  EC50, IL-8 release, MoDC maturation assay: 0.21 nM
Human CD40 on cells [10]
  Relative masking efficacy: 1 fold
Human CD40 on cells [11]
  EC50 (read off the curve): ~2 nM
Human CD40 on cells [12]
  EC50, luciferase reporter assay in U-2 OS/NFκB cells: 0.238 nM
  Relative masking efficacy, luciferase reporter assay in U-2 OS/NFκB cells: 1 fold
Human CD40 on cells [13]
  EC50: 1.5 nM
